Experimental data as given in patent US20210221891A1 (NANJING LEGEND BIOTECH, published 2021).

Molecular target: human PD-L1 expressed on CHO-K1 cells (human, UniProt Q9NZQ7 19-290)
Experiment: cell-based or functional assay

Chain of human PD-L1 expressed on CHO-K1 cells (Q9NZQ7 19-290): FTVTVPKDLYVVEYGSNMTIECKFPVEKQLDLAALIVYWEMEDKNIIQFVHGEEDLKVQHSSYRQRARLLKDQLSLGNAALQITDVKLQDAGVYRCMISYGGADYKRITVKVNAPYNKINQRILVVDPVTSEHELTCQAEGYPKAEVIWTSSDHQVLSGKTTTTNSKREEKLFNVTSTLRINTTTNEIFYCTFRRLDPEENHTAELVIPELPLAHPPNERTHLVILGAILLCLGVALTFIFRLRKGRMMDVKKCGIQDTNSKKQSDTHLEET

Binder	EC50 of PD-L1- based blockade assay for sdAbs [nM]
AS06750 sdAb (VHH) VHH: AVQLVESGGGLVQAGDSLRLSCTASGRTFLTYAVGWFRQAPGTEREFVAGIRWSGGYTDYADSVKGRFTISRDNAKNTVYLQMNSLKPEDTAVYYCAAHRTIATIPEKYEYEYWGQGTQVTVSS	33.6
AS12003 sdAb (VHH) VHH: EVQLVESGGGLVQAGDSLRLSCAASGRTFLSYAVGWFRQAPGTEREFVAGIRWSGGSTDYADSVKGRFTISRDNAKNTVYLQMNSLKPEDTAVYYCAAHRTIATVPNKYEYDTWGQGTQVTVSS	96.2
AS06682 sdAb (VHH) VHH: AVQLVESGGGLVQAGDSLRLSCTASGRTFLSYAVGWFRQAPGTEREFVAGIRWSGEHTDYAASVKGRFTISRDNAKNTVYLQMNSLKPEDTAVYYCAAHTTIATIPKKYEYEYWGQGTQVTVSS	42
AS06628 sdAb (VHH) VHH: QVQLVESGGGLVQAGGSLRLSCAASGRTFITYAIGWFRQAPGKEREFVTAINWSGSMTSYADSVKGRFTISRDNNKNMVYLQMNSLKPEDTAVYYCAAHRGAIAPMTQSVYDYWGQGTQVTVSS	24.2
AS06686 sdAb (VHH) VHH: AVQLVESGGGLVQAGDSLRLACAASGRTFLTYALGWFRQAPGKEREFVAGVSWSGSSTKYADSVKGRFTISRDNAKNTVYMQMNSLKPEDTAVYYCAAQISAIVPISAHEYQYWGQGTQVTVSS	352
AS11947 sdAb (VHH) VHH: DVQLVESGGGLVQAGDSLRLTCSASGRTFISYAVGWFRQAPGTEREFVAGIRWNGISTDYTDSVKGRFTISRDNAKNTVYLQMNSLKPEDTAIYYCAAHRTIATIPNKYEYDHWGQGTQVTVSS	77.2

Now from value to binder:

EC50 of PD-L1- based blockade assay for sdAbs [nM]	Binder
25.2	AS11948 sdAb (VHH) VHH: EVQLVESGGGLVQAGDSLRLSCVASGRTFVTYGMGWFRQAPGKEREFVAAINWSGSMTSYGDSVKGRFAISRDNAKNTVYLQMNSLKPEDTAVYYCAAALGAVVYTTREPYTYWGRGTQVTVSS
63.8	AS06617 sdAb (VHH) VHH: DVQLVESGGGLVQAGDSLRLSCAASGRTFISYAVGWFRQAPGSEREFVAGIRWNGIHTDYADSVKGRFTISRDNAKNTVTLEMTSLKPEDTAVYYCAAHRTIATIPEKYEYEYWGQGTQVTVSS
44.5	AS06618 sdAb (VHH) VHH: EVQLVESGGRLVRAGDSLRLSCAASGRTFLSYAVGWFRQAPGTEREFVAGIRWSGGYTDYAEAVKGRFTISRDNAKNTVYLQMNSLKPEDTAVYYCAAHRTIATIPEKYEYEYWGQGTQVTVSS
75.5	AS06775 sdAb (VHH) VHH: QVQLVESGGGLVQAGDSLRLSCAASGRTFLTLAVGWFRQAPGTEREFVAGIRWSGSGTDYADSVKGRFTISRDNAKNTVYLQMNSLKPEDTAVYYCAAHTTIATIPEKYEYEYWGRGTQVTVSS
36.5	AS06791 sdAb (VHH) VHH: QVQLVESGGGLVQAGGSLRLSCAASGRTFITYAIGWFRQAPGKEREFVTAINWSGSMTSYADSVKGRFTISRDNAKNTVYLQINGLKSEDTAVYYCAAHRGAIAPMTQSVYDYWGQGTQVTVSS
15	AS06703 sdAb (VHH) VHH: EVQLVESGGGLVRAGGSLRLSCAASGRTFITYAIGWFRQAPGKEREFVTAINWSGSMTSYADSVKGRFTISRDNNKNTVYLQMNSLKPEDTALYYCAAHLGAIAPMSQSVYDYWGQGTQVTVSS
17.2	AS06730 sdAb (VHH) VHH: QVQLVESGGGLVQAGGSLRLSCAASGRTFITYAIGWFRQAPGKEREFVSAINWSGSMTSYADSVKGRFTISRDNAKNTVYLQMNGLKPEDTAVYYCAAHRGAIAPIAQSVYTNWGQGTQVTVSS
20.1	AS06778 sdAb (VHH) VHH: QVQLVESGGGLVQAGGSLKLSCAASGRTFITYAMGWFRQAPGKERELVAAISWSGSSTYSADSVKGRFTISRDNAKNTVYLQMNSLKPEDTAVYYCAAEVSARTGEHLPKLMGDYWGQGTQVTVSS
